# Experimental data taken from patent publication US20190062398A1 (published 2019).
# Substitutions are numbered along the chain they refer to.
# T1: Human papillomavirus type 16 E6 protein peptide on HLA-A*02:01 (human)
# T1 peptide: TIHDIILECV
# T2: Human papillomavirus type 16 E5 protein peptide on HLA-A*02:01 (human)
# T2 peptide: YIIFVYIPL
# T3: Human papillomavirus type 16 E7 protein peptide on HLA-A*02:01 (human)
# T3 peptide: TLGIVCPI
# B1: T4 (TCR, V domains shown)
# Valpha: KQEVTQIPAALSVPEGENLVLNCSFTDSAIYNLQWFRQDPGKGLTSLLLIQSSQREQTSGRLNASLDKSSGRSTLYIAASQPGDSATYLCAVRETSGSRLTFGEGTQLTVNP
# Vbeta: DVKVTQSSRYLVKRTGEKVFLECVQDMDHENMFWYRQDPGLGLRLIYFSYDVKMKEKGDIPEGYSVSREKKERFSLILESASTNQTSMYLCASSFWGRSTDTQYFGPGTRLTVL
# B2: T2 (TCR, V domains shown)
# Valpha: QKEVEQNSGPLSVPEGAIASLNCTYSDRGSQSFFWYRQYSGKSPELIMSIYSNGDKEDGRFTAQLNKASQYVSLLIRDSQPSDSATYLCAVNVDFNKFYFGSGTKLNVKP
# Vbeta: DTEVTQTPKHLVMGMTNKKSLKCEQHMGHRAMYWYKQKAKKPPELMFVYSYEKLSINESVPSRFSPECPNSSLLNLHLHALQPEDSALYLCASSQDWNNEQFFGPGTRLTVL
# B3: T7 (TCR, V domains shown)
# Valpha: QQPVQSPQAVILREGEDAVINCSSSKALYSVHWYRQKHGEAPVFLMILLKGGEQKGHEKISASFNEKKQQSSLYLTASQLSYSGTYFCGTGTDSWGKLQFGAGTQVVVTP
# Vbeta: DAGVIQSPRHEVTEMGQEVTLRCKPISGHDYLFWYRQTMMRGLELLIYFNNNVPIDDSGMPEDRFSAKMPNASFSTLKIQPSEPRDSAVYFCASSPGLAGGEQFFGPGTRLTVL
# B4: T5a (TCR, V domains shown)
# Valpha: SQQGEEDPQALSIQEGENATMNCSYKTSINNLQWYRQNSGRGLVHLILIRSNEREKHSGRLRVTLDTSKKSSSLLITASRAADTASYFCATVSTDSWGKLQFGAGTQVVVTP
# Vbeta: DAGITQSPRHKVTETGTPVTLRCHQTENHRYMYWYRQDPGHGLRLIHYSYGVKDTDKGEVSDGYSVSRSKTEDFLLTLESATSSQTSVYFCAISDSNGINIQYFGAGTRLSVL
# B5: T3 (TCR, V domains shown)
# Valpha: EDQVTQSPEALRLQEGESSSLNCSYTVSGLRGLFWYRQDPGKGPEFLFTLYSAGEEKEKERLKATLTKKESFLHITAPKPEDSATYLCAVQANRGSTLGRLYFGRGTQLTVWP
# Vbeta: DVKVTQSSRYLVKRTGEKVFLECVQDMDHENMFWYRQDPGLGLRLIYFSYDVKMKEKGDIPEGYSVSREKKERFSLILESASTNQTSMYLCASSLWGRLAKNIQYFGAGTRLSVL
# B6: T5b (TCR, V domains shown)
# Valpha: B4 Valpha
# Vbeta: B5 Vbeta with L99A, A100G, N102D, I103T, A108P, S113T
# Experiments:
# Assay in all cases: cytokine release
# [1] = target: T1, Human papillomavirus type 16 E6 protein …
# [2] = target: T2, Human papillomavirus type 16 E5 protein …
# [3] = target: T3, Human papillomavirus type 16 E7 protein …
Binder,binding result [1],other results
B1,recognises,–
B2,–,binding result [2]: recognises
B3,–,binding result [3]: recognises
B4,recognises,–
B5,recognises,–
B6,recognises,–
